What was measured:
[1] = molecular target: T1, shorter version of peptide #289 (1153-DKYFKNHTSPD-1163) (SARS-CoV-2 (spike 1153-1163, matches …)); test: SPR; details: both partners purified
T1 chain: DKYFKNHTSPD

[2] = molecular target: T2, SARS-CoV-2 S2 peptide #288 (1149-KEELDKYFKNHTSPD-1163) (SARS-CoV-2 (spike 1149-1163, matches …)); test: ELISA; details: both partners purified
T2 chain: KEELDKYFKNHTSPD

B1: CV3–25 IgG (antibody, V domains shown)
VH: EVQLVESGAEVKKPGESLKISCKGSGYTFTRYWIGWVRQMPGKGLEWMGIIYPGDSDTRYSPSFQGHVTISADKSISTAYLQWNSLKASDTAMYYCARLPQYCSNGVCQRWFDPWGQGTLVTVSS
VL: EIVLTQSPSSVSASVGDRVTITCRASQGISSWLAWYQQKPGKAPKLLIYAASSLQSGVPSRFSGSGSGTDFTLTISSLQPEDFATYYCQQGNSFPYTFGQGTNLEIK
- Kd [1]: ~1000 nM
- binding result [2]: binds
